{
  "source": "patent US20120045459",
  "proteins": {"B1": {"name": "GST-tagged recombinant PTPsigma catalytic fragment (PTPRS-CTF; BC104812 aa1156-1501) (protein)", "chain": "IVMVPLRKSRGGQFLTPLGSPEDMDLEELIQDISRLQRRSLRHSRQLEVPRPYIAARFSVLPPTFHPGDQKQYGGFDNRGLEPGHRYVLFVLAVLQKSEPTFAASPFSDPFQLDNPDPQPIVDGEEGLIWVIGPVLAVVFIICIVIAILLYKNKPDSKRKDSEPRTKCLLNNADLAPHHPKDPVEMRRINFQTPDSGLRSPLREPGFHFESMLSHPPIPIADMAEHTERLKANDSLKLSQEYESIDPGQQFTWEHSNLEVNKPKNRYANVIAYDHSRVILQPIEGIMGSDYINANYVDGYRCQNAYIATQGPLPETFGDFWRMVWEQRSATIVMMTRLEEKSRIKC"}, "B2": {"name": "GST-tagged recombinant full-length MTMR6 (NM-004685.2) (protein)", "chain": "MEHIRTTKVEQVKLLDRFSTSNKSLTGTLYLTATHLLFIDSHQKETWILHHHIASVEKLALTTSGCPLVIQCKNFRTVHFIVPRERDCHDIYNSLLQLSKQAKYEDLYAFSYNPKQNDSERLQGWQLIDLAEEYKRMGVPNSHWQLSDANRDYKICETYPRELYVPRIASKPIIVGSSKFRSKGRFPVLSYYHQDKEAAICRCSQPLSGFSARCLEDEHLLQAISKANPVNRYMYVMDTRPKLNAMANRAAGKGYENEDNYSNIRFQFVGIENIHVMRSSLQKLLEVNGTKGLSVNDFYSGLESSGWLRHIKAVMDAAIFLAKAITVENASVLVHCSDGWDRTSQVCSLGSLLLDSYYRTIKGFMVLIEKDWISFGHKFSERCGQLDGDPKEVSPVFTQFLECVWHLTEQFPQAFEFSEAFLLQIHEHIHSCQFGNFLGNCQKEREELKLKEKTYSLWPFLLEDQKKYLNPLYSSESHRFTVLEPNTVSFNFKFWRNMYHQFDRTLHPRQSVFNIIMNMNEQNKQLEKDIKDLESKIKQRKNKQTDGILTKELLHSVHPESPNLKTSLCFKEQTLLPVNDALRTIEGSSPADNRYSEYAEEFSKSEPAVVSLEYGVARMTC"}, "B3": {"name": "PTP1B (from Upstate) (protein)", "chain": "MEMEKEFEQIDKSGSWAAIYQDIRHEASDFPCRVAKLPKNKNRNRYRDVSPFDHSRIKLHQEDNDYINASLIKMEEAQRSYILTQGPLPNTCGHFWEMVWEQKSRGVVMLNRVMEKGSLKCAQYWPQKEEKEMIFEDTNLKLTLISEDIKSYYTVRQLELENLTTQETREILHFHYTTWPDFGVPESPASFLNFLFKVRESGSLSPEHGPVVVHCSAGIGRSGTFCLADTCLLLMDKRKDPSSVDIKKVLLEMRKFRMGLIQTADQLRFSYLAVIEGAKFIMGDSSVQDQWKELSHEDLEPPPEHIPPPPRPPKRILEPHN"}},
  "data": [
    {"target": "phosphotyrosine peptide (Upstate)", "values": [
      {"protein": "B1", "in vitro phosphatase activity (malachite green, released phosphate)": "exhibiting significant activity against a tyrosine-phosphorylated peptide (p-Tyr)"},
      {"protein": "B2", "in vitro phosphatase activity (malachite green, released phosphate)": "only negligible activity against p-Tyr"},
      {"protein": "B3", "in vitro phosphatase activity (malachite green, released phosphate)": "PTP1B, a bona fide PTPase, dephosphorylated p-Tyr exclusively"}
    ]}
  ]
}
